B5: CCL1_HUMAN (ligand)
chain: KSMQVPFSRCCFSFAEQEIPLRAILCYRNTSSICSNEGLIFKLKRGKEACALDTVGWVQRHRKMLRHCPSKRK
notes: Biotinylated (detected with streptavidin-Alexa647) in yeast display; AlexaFluor 647 labelled (Almac) in thermophoresis
B6: CCL18_HUMAN (ligand)
chain: AQVGTNKELCCLVYTSWQIPQKFIVDYSETSPQCPKPGVILLTKRGRQICADPNKKWVQKYISDLKLNA
notes: as for B5
B7: CCL11_HUMAN (ligand)
chain: not shown
notes: as for B5

For test [1], the target named is T1, CCL25_HUMAN (human, UniProt O15444 24-150).
T1 construct: Biotinylated (detected with streptavidin-Alexa647) in yeast display; AlexaFluor 647 labelled (Almac) in thermophoresis
T1 sequence: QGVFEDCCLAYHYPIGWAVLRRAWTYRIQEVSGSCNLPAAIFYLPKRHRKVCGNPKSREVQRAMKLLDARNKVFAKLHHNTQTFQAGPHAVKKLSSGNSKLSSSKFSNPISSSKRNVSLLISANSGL
Description: yeast surface display library FACS screen, labelled chemokine (col C: isolated in).

The target in test [2] is T2, CCL5_HUMAN (human, UniProt P13501 24-91).
T2 construct: Biotinylated (detected with streptavidin-Alexa647) in yeast display; AlexaFluor 647 labelled (Almac) in thermophoresis
T2 sequence: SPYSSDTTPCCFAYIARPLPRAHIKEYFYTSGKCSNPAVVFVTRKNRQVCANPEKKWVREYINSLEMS
Described as above.

The target in another test is T3, CCL3_HUMAN (human, UniProt P10147 24-92).
T3 construct: Biotinylated (detected with streptavidin-Alexa647) in yeast display; AlexaFluor 647 labelled (Almac) in thermophoresis
T3 sequence: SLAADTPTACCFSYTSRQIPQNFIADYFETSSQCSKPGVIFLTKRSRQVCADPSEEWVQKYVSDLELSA
Description: yeast surface display FACS re-test, >3 fold MFI over control (col D).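 Note: yeast displaying putative tick Evasins stained with biotinylated human chemokine plus streptavidin-Alexa647, flow cytometry, positive when MFI exceeds 3-fold the empty-vector or no-chemokine background.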

Test [3] addresses T2, CCL5_HUMAN. The description is as above.
Test [4] has as its target T4, CCL17_HUMAN (human, UniProt Q92583 24-94).
T4 construct: Biotinylated (detected with streptavidin-Alexa647) in yeast display; AlexaFluor 647 labelled (Almac) in thermophoresis
T4 sequence: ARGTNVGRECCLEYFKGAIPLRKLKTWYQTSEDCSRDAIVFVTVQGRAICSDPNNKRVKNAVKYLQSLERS
The description is as above.

In test [5] the target is T5, CCL19_HUMAN (human, UniProt Q99731 22-98).
T5 construct: Biotinylated (detected with streptavidin-Alexa647) in yeast display; AlexaFluor 647 labelled (Almac) in thermophoresis
T5 sequence: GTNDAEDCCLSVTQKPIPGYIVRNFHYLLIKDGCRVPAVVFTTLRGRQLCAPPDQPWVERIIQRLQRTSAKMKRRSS
Described as above.

Test [6] deals with T6, CXCL8_HUMAN (human, UniProt P10145 28-99).
T6 construct: Biotinylated (detected with streptavidin-Alexa647) in yeast display; AlexaFluor 647 labelled (Almac) in thermophoresis
T6 sequence: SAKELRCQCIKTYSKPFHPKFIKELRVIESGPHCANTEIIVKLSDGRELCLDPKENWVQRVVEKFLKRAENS
Described as above.

The target of the test “CCL1_HUMAN” is B5. Nature of the test: yeast surface display library FACS screen, labelled chemokine (col C: isolated in).
The target of the test “CCL11_HUMAN” is B7. The test is described as above.
A further test concerns the target T7, CCL8_HUMAN (human, UniProt P80075 24-99).
T7 construct: Biotinylated (detected with streptavidin-Alexa647) in yeast display; AlexaFluor 647 labelled (Almac) in thermophoresis
T7 sequence: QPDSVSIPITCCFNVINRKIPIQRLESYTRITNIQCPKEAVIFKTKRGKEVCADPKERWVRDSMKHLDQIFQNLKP
Description: yeast surface display FACS re-test, >3 fold MFI over control (col D).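 Note: yeast displaying putative tick Evasins stained with biotinylated human chemokine plus streptavidin-Alexa647, flow cytometry, positive when MFI exceeds 3-fold the empty-vector or no-chemokine background.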

Another test concerns the target T8, P546_AMBCA (Amblyomma cajennense, UniProt A0A023FBW7 22-118).
T8 construct: Tick evasin; also called Evasin
T8 sequence: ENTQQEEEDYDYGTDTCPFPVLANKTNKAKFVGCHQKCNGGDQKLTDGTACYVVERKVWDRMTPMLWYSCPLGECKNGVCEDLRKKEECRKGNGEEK
Nature of the test: microscale thermophoresis, AlexaFluor 647 labelled chemokine. In general terms: Microscale thermophoresis detects binding through changes in fluorescence in a small temperature gradient.

For the next test, the target named is T9, P467_RHIPU (Rhipicephalus pulchellus, UniProt L7M8Z8 22-127).
T9 construct: Tick evasin; also called Evasin
T9 sequence: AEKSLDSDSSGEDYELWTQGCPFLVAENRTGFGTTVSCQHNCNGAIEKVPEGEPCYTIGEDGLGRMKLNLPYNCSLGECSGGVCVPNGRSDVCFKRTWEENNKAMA
Nature of the test: yeast surface display library FACS screen, labelled chemokine (col C: isolated in).

For the next test, the target named is T10, P1182_AMBMA (Amblyomma maculatum, UniProt G3MJ83 27-115).
T10 construct: Tick evasin; also called Evasin
T10 sequence: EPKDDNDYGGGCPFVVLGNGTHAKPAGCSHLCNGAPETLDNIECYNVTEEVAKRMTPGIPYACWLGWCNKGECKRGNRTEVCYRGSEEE
Described as above.

In a further test the target is T11, P1243_AMBAM (Amblyomma americanum, UniProt A0A0C9S461 26-123).
T11 construct: Tick evasin; also called Evasin
T11 sequence: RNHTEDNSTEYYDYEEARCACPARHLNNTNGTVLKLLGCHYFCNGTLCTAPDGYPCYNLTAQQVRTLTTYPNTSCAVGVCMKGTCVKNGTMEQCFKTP
Described as above.

The test “CCL18_HUMAN” addresses B6. Nature of the test: yeast surface display FACS re-test, >3 fold MFI over control (col D).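 Note: yeast displaying putative tick Evasins stained with biotinylated human chemokine plus streptavidin-Alexa647, flow cytometry, positive when MFI exceeds 3-fold the empty-vector or no-chemokine background.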
For test [7], the target named is T1, CCL25_HUMAN. Described as above.
Another test deals with T12, CCL20_HUMAN (human, UniProt P78556 27-96).
T12 construct: Biotinylated (detected with streptavidin-Alexa647) in yeast display; AlexaFluor 647 labelled (Almac) in thermophoresis
The description is as above.

The target of test [8] is T4, CCL17_HUMAN. Description: yeast surface display library FACS screen, labelled chemokine (col C: isolated in).
For test [9], the target named is T5, CCL19_HUMAN. The description is as above.
For another test, the target named is T13, CXCL10_HUMAN (human, UniProt P02778 22-98).
T13 construct: Biotinylated (detected with streptavidin-Alexa647) in yeast display; AlexaFluor 647 labelled (Almac) in thermophoresis
T13 sequence: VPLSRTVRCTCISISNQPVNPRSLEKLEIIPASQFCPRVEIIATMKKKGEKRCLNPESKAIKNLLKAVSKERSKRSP
The test is described as above.

Test [10] addresses T6, CXCL8_HUMAN. The description is as above.

Sequence of CCL11_HUMAN (P51671 24-97 limits assumed): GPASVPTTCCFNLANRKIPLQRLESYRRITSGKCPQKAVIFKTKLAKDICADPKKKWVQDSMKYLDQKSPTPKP
T12 sequence (P78556 27-96 limits assumed): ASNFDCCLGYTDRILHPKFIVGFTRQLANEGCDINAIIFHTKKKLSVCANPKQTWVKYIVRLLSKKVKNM

B1: P1220_IXORI (other)
chain: GSTPSAMKTEDILKVLGSTSSLENHTDSSHCRYQELLDITKNIENAGFLAINCQRSCPNGKQTMVEGYGCIFKIKHATKRGKVKVKEGSCRKGACVRGSTRPPWRLLVLLGESKEEEFL
notes: Tick evasin; also called Evasin
In the case of B1, the binding result with CCL25_HUMAN [1] is listed as “binds”.

B2: P943_IXORI (other)
chain: RSKQPTASQSSKNSIKAEFCDTNCTQGTNGAWSGCSEGCFCVHVGNNTKGRCMKLSSDYDYTTQ
notes: as for B1
On to B2, for which, in the test with CCL5_HUMAN [2], the binding result is “binds”.

B3: P1005_AMBMA (other)
chain: EKDTPKNIPGCGDTGTTAAPPADNPKHFAVYTDKHGCTIKVIGTWMTKEDHSRLPVSLRRVRASSGRVMLPASCQKICNDTVKNFPEGTPCRLVTGDPIKGKNHIKDGCIRGYCSSGVCVSDKRNISCYVPPN
notes: as for B1
With B3, the binding result with CCL3_HUMAN, in the test with CCL5_HUMAN [3], with CCL17_HUMAN [4], with CCL19_HUMAN [5], with CXCL8_HUMAN [6] and with CCL1_HUMAN was “binds” in each case. The binding result with CCL11_HUMAN and with CCL25_HUMAN [1] was “binds” in each case.

B4: P698_RHISA (other)
chain: NEDDSSDYYDASPMNCSSMSVNSTMGWLSMNCTMSCNGTTFPLSNSTHCFHSYTNLTVQSRMETMTYNCSVGTCSNGTCVENGTTTTCW
notes: as for B1
Take B4: the binding result with CCL8_HUMAN is on record as “binds”.
For orientation: Kd means the constant that tells how readily two partners part at equilibrium. For B5, in the test with P546_AMBCA, the Kd came out at 149 nM. The binding result with P467_RHIPU is given as “binds”.
Regarding B6, the Kd with P546_AMBCA is 86 nM. In addition, the binding result with P1182_AMBMA and with P1243_AMBAM was “binds” in each case.
As to B7, the equilibrium dissociation constant (Kd) in the test with P546_AMBCA was 500 nM.

B8: CXCL11_HUMAN (ligand)
chain: FPMFKRGRCLCIGPGVKAVKVADIEKASIMYPSNNCDKIEVIITLKENKGQRCLNPKSKQARLIIKKVERKNF
notes: as for B5
Consider B8, for which the binding result with P546_AMBCA is reported as “no binding”.

B9: CCL22_HUMAN (ligand)
chain: GPYGANMEDSVCCRDYVRYRLPLRVVKHFYWTSDSCPRPGVVLLTFRDKEICADPRVPWVKMILNKLSQ
notes: as for B5
The molecule B9 registered a Kd with P546_AMBCA of 175 nM.

B10: P1011_AMBTR (other)
chain: EKDTPKNIPGCEDAGTTAAPPADNPKHYAVYTDKNGCTFKVIGTWMTKEDHRRLPVSLRRVRASSGRVKLPASCQKICKHSVKKFPEGTPCRLVTRDPIKGKNHIKNGCIRGYCSSGVCVSDNRSISCYVLPNNTELTSPSGSFAE
notes: as for B1
Turning to B10, the binding result with CCL5_HUMAN [3], with CCL17_HUMAN [4], with CCL18_HUMAN, in the test with CCL25_HUMAN [7] and with CCL11_HUMAN was “binds” each time.

B11: P1030_AMBPA (other)
chain: GPPSIPGNESIPGCGDAGTTTAPEDNPKHYGTLTDKKGCTLPIIGTWMTAVDHQHLQGTRGERRGPTGKVNLPASCRKNCHGRQEILRDGIPCRKVVGNPKGSKKHLKSGCLRGKCLAGQCVNDGRRISCYVPRNITDTEPTPGLLAE
notes: Tick evasin
As to B11, the binding result with CCL3_HUMAN, with CCL5_HUMAN [3], in the test with CCL8_HUMAN, in the test with CCL18_HUMAN, with CCL20_HUMAN and with CXCL8_HUMAN [6] was “binds” each time. For the same molecule, the binding result in the test with CCL11_HUMAN and with CCL17_HUMAN [8] was “binds” in each case.

B12: P1219_IXORI (other)
chain: ASLAKETEDTTLPARALVDSPDSDNCSSPQLPYFDELTYMPLGFLAVNCTKTCPVGKNGTVVNGNKCIVTWSILDVSTITVLVGSCKNGYCISDGSSECRNITLAGEDSQEEEEEAEEDEEEDDGDEEEDEEEDEEENDDD
notes: as for B1
Take B12: the binding result with CCL19_HUMAN [9] and in the test with CXCL10_HUMAN was “binds” each time.

B13: P1146_IXORI (other)
chain: GPDTKGDEESDENELFTVEYCGTNCTQLENGSWTPCSGNNGNCRCFHESDKTVGLCLSTEYTDFSEYPDPNSSEIIAAAPLPRERLIQ
notes: as for B1
As for B13, the binding result with CXCL8_HUMAN [10] was “binds”.

B14: P1063_AMBTR (other)
chain: QSEVGKNVPGCGDTETLEAPPQEKPPYYEYKDEEGCTQKVLESWFQAGERSTGRGQKKRGHGRRPSRVLRTVDCRKNCTVGITALPDGHLCLVPRGDPFTRGGAIKYGCYLGDCASGHCQHRYETVSCRLPAPDTTAKPYYVTPEK
notes: as for B1
Regarding B14, the binding result with CCL5_HUMAN [2] is on record as “binds”.

B15: P1283_IXORI (other)
chain: KEPEDTTLPPGALVDSPDSDNCSSPHLPYFDETTNMWMGFLAVNCTKKCPVGKHVTVVDGNKCIGTWSFLDELTITVLVGSCKDGFCETDGSSECRNITLAEEDSQEEEGAAAEEEDEEDEEDEEEEEAEEEREDDHDDA
notes: as for B1
Turning to B15, the binding result in the test with CXCL10_HUMAN is given as “binds”.

(Values after patent publication US20220175942A1 (OXFORD UNIVERSITY INNOVATION, published 2022).)
